# Results taken from article PMC9045395, “Assembly and Functional Role of PACE Transporter PA2880 from Pseudomonas aeruginosa” (Microbiology Spectrum, 2022).
# Assays:
# [1] = target: T1, PA2880 (Pseudomonas aeruginosa, UniProt Q9HZW7); experiment: native mass spectrometry (LILBID-MS); details: 200 mM ammonium acetate, 0.02% DDM; binding increases dimer population; proton-coupled transport substrate
# T1 construct: full length, C-terminal TEV site, eGFP (A206K) and Strep-tag; also tested without eGFP in native MS; expressed in Pseudomonas stutzeri; purified in DDM; dimer
# [2] = target: the molecule itself; experiment: native MS; LILBID-MS; protein in 200 mM ammonium acetate with 0.02% (wt/vol) DDM, pH 8; monomer to dimer; some samples with chlorhexidine up to a substrate/protein molar ratio of 8 (more dimer)
# [3] = target: the molecule itself; experiment: native MS; LILBID-MS; protein in 200 mM ammonium acetate with 0.02% (wt/vol) DDM, pH series from 5 to 9; monomer to dimer; dimer ratio from deconvoluted zero-charge spectra
# [4] = target: the molecule itself; experiment: native MS
molecule,measurement,setting,value
N=C(NCCCCCCNC(=N)NC(=N)Nc1ccc(Cl)cc1)NC(=N)Nc1ccc(Cl)cc1 [chlorhexidine],native mass spectrometry (LILBID-MS),[1],The LILIBID-MS results showed that chlorhexidine was bound to PA2880
"PA2880 fused with enhanced green fluorescent protein (PA2880-eGFP), wild type (natural protein, also called wt; wild-type PA2880 with fused eGFP; source: Pseudomonas stutzeri (pL2020-PA2880-eGFP), purified (Strep XT column, SEC, in DDM); not shown: eGFP (A206K variant), C-terminal, kept) MTIQPDFNDEPGAFAMTHTHTALDKTLKERIFHALAFEGLAVLLTAPVLSLVMNKPLAHMGALTLMFSTVAMLWNMLFNSLFDRAQRRMGFQRTLQVRVLHAMLFELGLIVVLVPLAAWWLSIGLVEAFLLDMGLILFFLPYTMAFNWSYDVLRARLVESRQAKAAGCDAG",stoichiometry N,[2],2
"PA2880 E38Q variant (natural protein, Pseudomonas aeruginosa strain PAO1, UniProt Q9HZW7 1-171, looked up, PACE family transporter PA2880 of Pseudomonas aeruginosa strain PAO1 with E38Q; source: purified; not shown: eGFP (A206K variant), C-terminal, kept) MTIQPDFNDEPGAFAMTHTHTALDKTLKERIFHALAFQGLAVLLTAPVLSLVMNKPLAHMGALTLMFSTVAMLWNMLFNSLFDRAQRRMGFQRTLQVRVLHAMLFELGLIVVLVPLAAWWLSIGLVEAFLLDMGLILFFLPYTMAFNWSYDVLRARLVESRQAKAAGCDAG",stoichiometry N,[3],2
"wild-type PA2880 without fused eGFP (natural protein, also called PA2880 without eGFP) MTIQPDFNDEPGAFAMTHTHTALDKTLKERIFHALAFEGLAVLLTAPVLSLVMNKPLAHMGALTLMFSTVAMLWNMLFNSLFDRAQRRMGFQRTLQVRVLHAMLFELGLIVVLVPLAAWWLSIGLVEAFLLDMGLILFFLPYTMAFNWSYDVLRARLVESRQAKAAGCDAG",stoichiometry N,[4],2
